Values of other authors in PMC3966486.

What was measured:
His180 = His180 (UniProt position 208, LRRDSHKIDNY); settings: unbound (free) monomer, not in the hormone-receptor complex
His27 [1] = target: His27 (UniProt position 55, AVVLSHYIHNL); settings: unbound (free) monomer, not in the hormone-receptor complex
His30 [2] = target: His30 (UniProt position 58, LSHYIHNLSSE); settings: unbound (free) monomer, not in the hormone-receptor complex
His30 [3] = target: His30 (UniProt position 58, LSAYIHNLSSE); settings: unbound (free) monomer, not in the hormone-receptor complex
His27 [4] = target: His27 (UniProt position 55, AVVLSHYIANL); settings: unbound (free) monomer, not in the hormone-receptor complex
His188 = His188 (UniProt position 212, RCKPDHGYWSA); settings: unbound (free) monomer, not in the hormone-receptor complex
[5] = target: human prolactin receptor extracellular domain (hPRLr-ECD), wild type (UniProt P16471); settings: pH
Sequence of human prolactin receptor extracellular domain (hPRLr-ECD), wild type (P16471 whole entry, the tested form may be a part): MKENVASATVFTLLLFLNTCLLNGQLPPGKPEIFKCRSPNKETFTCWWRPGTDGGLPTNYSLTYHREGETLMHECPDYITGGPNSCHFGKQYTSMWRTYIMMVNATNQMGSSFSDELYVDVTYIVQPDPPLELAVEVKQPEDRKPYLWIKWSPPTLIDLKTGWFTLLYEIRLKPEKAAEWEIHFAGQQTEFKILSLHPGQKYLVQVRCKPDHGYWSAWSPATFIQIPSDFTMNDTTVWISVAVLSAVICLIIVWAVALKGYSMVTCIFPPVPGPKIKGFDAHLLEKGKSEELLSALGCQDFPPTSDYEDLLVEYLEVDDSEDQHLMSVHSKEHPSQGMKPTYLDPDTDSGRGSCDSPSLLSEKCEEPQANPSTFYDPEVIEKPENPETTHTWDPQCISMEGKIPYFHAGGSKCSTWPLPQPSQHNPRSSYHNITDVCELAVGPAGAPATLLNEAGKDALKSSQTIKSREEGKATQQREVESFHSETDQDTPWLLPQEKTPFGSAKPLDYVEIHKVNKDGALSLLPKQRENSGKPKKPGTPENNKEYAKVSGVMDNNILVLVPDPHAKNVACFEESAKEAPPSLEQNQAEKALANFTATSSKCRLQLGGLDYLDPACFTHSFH

[6] = target: human prolactin receptor extracellular domain (hPRLr-ECD), wild type (UniProt P16471); settings: pH; remark: listed apart in the source
[7] = target: human prolactin receptor extracellular domain (hPRLr-ECD), wild type (UniProt P16471); settings: pH; remark: listed apart in the source

Prolactin (hPRL) (Homo sapiens)
pKa (His180): 6.1 | pKa (His27 [1]): 6.7 | pKa (His30 [2]): 6.3

Prolactin (hPRL) H27A (Homo sapiens; H27A)
pKa (His180): 6.2 | pKa (His30 [3]): 6.5

Prolactin (hPRL) H30A (Homo sapiens; H30A)
pKa (His180): 6.3 | pKa (His27 [4]): 6.9

Prolactin (hPRL) H180A (Homo sapiens; H180A)
pKa (His27 [1]): 6.8 | pKa (His30 [2]): 6.7

Prolactin receptor extracellular domain (hPRLr-ECD) (Homo sapiens)
pKa (His188): 7.7

human prolactin H27A H27A
pKa, His30 of hPRL H27A [5]: 6.5 pH units | pKa, His180 of hPRL H27A [5]: 6.2 pH units

human prolactin H30A H30A
pKa, His27 of hPRL H30A [6]: 6.9 pH units | pKa, His180 of hPRL H30A [6]: 6.3 pH units

human prolactin H180A H180A
pKa, His27 of hPRL H180A [7]: 6.8 pH units | pKa, His30 of hPRL H180A [7]: 6.7 pH units
